Results as given in patent US20060252678A1.

Target: mouse LSR (lipolysis stimulated receptor) (mouse) (UniProt Q99KG5)
Experiment: cell-based or functional assay

Chain of UniProt Q99KG5 (Q99KG5 36-594): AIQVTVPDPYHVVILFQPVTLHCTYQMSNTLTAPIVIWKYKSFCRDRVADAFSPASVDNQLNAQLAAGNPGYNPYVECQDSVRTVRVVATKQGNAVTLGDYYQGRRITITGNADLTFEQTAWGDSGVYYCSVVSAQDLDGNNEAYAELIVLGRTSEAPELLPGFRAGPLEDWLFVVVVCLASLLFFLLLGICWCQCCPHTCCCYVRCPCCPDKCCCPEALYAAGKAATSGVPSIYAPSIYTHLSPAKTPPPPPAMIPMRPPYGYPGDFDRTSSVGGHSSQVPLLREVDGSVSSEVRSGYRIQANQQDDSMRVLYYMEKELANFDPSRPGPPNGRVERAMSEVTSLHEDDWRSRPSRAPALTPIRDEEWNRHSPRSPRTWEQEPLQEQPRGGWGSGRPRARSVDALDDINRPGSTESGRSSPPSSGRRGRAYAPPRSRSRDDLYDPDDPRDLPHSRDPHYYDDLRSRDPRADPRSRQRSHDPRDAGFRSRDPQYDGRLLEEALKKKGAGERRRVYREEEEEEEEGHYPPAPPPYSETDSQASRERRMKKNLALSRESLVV

cell-associated 125I-leptin in BPRCL mouse liver cells after pre-incubation with increasing AdipoQ (AQ) or globular AdipoQ (AQ-GH): > 30%
Substance: 125I-mouse leptin (from UniProt P41160 22-167) (ligand)
